According to patent US20190315845A1 (ANNEXON, published 2019):

Experiments:
[1] = biological target: T1, human C1q (human, UniProt P02745 23-245; P02746 28-253; P02747 29-245); assay: SPR Biacore T200, heterogeneous ligand model, kd1; hC1q immobilised (ligand), Fab analyte
T1 construct: Purified human C1q protein (plate-coated in ELISA, ligand or analyte in SPR, in human serum in CH50); also called hC1q; complement factor C1q

[2] = biological target: T2, mouse C1q (mouse, UniProt P98086 23-245; P14106 26-253; Q02105 30-246); assay: SPR Biacore T200, 1:1 model; mC1q immobilised (ligand), Fab analyte; analysis 2
T2 construct: Purified mouse C1q protein; also called mC1q
T2 sequence (P98086 23-245 limits assumed, chain 1 of 3): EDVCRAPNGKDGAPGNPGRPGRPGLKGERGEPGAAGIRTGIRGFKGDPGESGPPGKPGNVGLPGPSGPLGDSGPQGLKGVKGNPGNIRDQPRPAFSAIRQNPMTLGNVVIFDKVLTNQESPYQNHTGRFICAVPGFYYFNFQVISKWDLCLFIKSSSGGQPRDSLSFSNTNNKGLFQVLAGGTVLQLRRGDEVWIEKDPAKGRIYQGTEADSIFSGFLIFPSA
T2 sequence (P14106 26-253 limits assumed, chain 2 of 3): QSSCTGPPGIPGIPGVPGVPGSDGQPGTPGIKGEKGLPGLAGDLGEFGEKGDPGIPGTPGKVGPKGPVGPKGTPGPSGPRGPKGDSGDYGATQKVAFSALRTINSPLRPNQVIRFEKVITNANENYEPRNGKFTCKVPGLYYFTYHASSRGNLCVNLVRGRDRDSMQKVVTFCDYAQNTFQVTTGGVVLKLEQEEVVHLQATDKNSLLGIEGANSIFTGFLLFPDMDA
T2 sequence (Q02105 30-246 limits assumed, chain 3 of 3): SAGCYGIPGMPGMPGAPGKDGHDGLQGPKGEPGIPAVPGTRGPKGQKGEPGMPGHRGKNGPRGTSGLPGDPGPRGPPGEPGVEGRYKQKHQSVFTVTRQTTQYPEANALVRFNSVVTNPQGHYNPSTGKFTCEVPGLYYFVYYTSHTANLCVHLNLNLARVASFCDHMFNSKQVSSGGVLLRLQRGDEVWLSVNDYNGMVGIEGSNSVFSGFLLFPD
Procedure: (§1) Due to concerns about stability, two chips were prepared; one with hC1q and mC1q (Chip All) as ligands and one with IgG and Fab (Chip A13) as ligands Immobilization for m/h C1q was carried out at a protein concentration of 5 μg/ml in 10 mM acetate buffer pH 5.5, whereas immobilization for IgG and Fab was carried out at a protein concentration of 0.5-2 μg/ml in 10 mM acetate buffer pH 5.0, both on a CMS Series S sensor chip (Biacore).
(§2) Both C1q complexes were immobilized based on concerns over avidity (i.e., two immobilized antibodies binding C1q), and the very high levels of NSB observed using mC1q and to a lesser extent hC1q to the CM5 surface (charge mediated estimated C1q: pI 8-9). Single cycle kinetics (SCK) were used initially to derive estimated kinetic constants due to uncertainty over the stability of the C1q complex and the regeneration conditions. Full kinetic analysis was performed after SCK. The ligand stability control injections performed during the kinetic run indicated either the regeneration conditions used were inactivating the ligand, or the ligand itself was unstable at 25° C. during the 48 hours required for kinetic analysis.
(§3) The association phase was monitored for 500 seconds to allow some of the higher concentrations of analyte to reach steady state. In order to observe a sufficient signal decrease (>10%) during the dissociation phase of the kinetic cycle, dissociation was measured for up to 10,800 seconds to allow sufficient dissociation to occur for accurate assessment of the kinetics. The signal from the reference channel Fₑ1 was subtracted from that of Fₑ2, Fₑ3, and Fₑ4.

[3] = biological target: T1, human C1q; assay: SPR Biacore T200, heterogeneous ligand model, ka1; hC1q immobilised (ligand), Fab analyte
Procedure: as §1
(§4) The kinetic parameters for both the IgG and Fab interactions with hC1q were in the low picomolar range (Table 6 for 1-to-1 model and Table 7 for the heterogeneous model). In order to avoid avidity, hC1q was initially used as the ligand, however this limited the analysis to single cycle kinetics and the use of more complex models, for example, heterogeneous ligand binding models (Equation 3), that may represent the different forms of hC1q structure that were associated with chemical coupling of a multi-subunit protein to a surface. When hC1q was used as the analyte both IgG and Fab were immobilized at the lowest concentrations possible to avoid avidity. The data was analyzed using a 1-to-1 model and a more complex bivalent analyte model (Equation 4). […] It should be noted that the dissociation rate was too slow to measure accurately with this technique. […]

[4] = biological target: T1, human C1q; assay: SPR Biacore T200, heterogeneous ligand model, KD2; hC1q immobilised (ligand), Fab analyte
Procedure: as §1, §4

[5] = biological target: T2, mouse C1q; assay: SPR Biacore T200, 1:1 model; Fab immobilised (ligand), mC1q analyte; mean of 2 independent analyses
Procedure: as §1, §3

[6] = biological target: T1, human C1q; assay: SPR Biacore T200, 1:1 model; Fab immobilised (ligand), hC1q analyte
[7] = biological target: T2, mouse C1q; assay: SPR Biacore T200, 1:1 model; mC1q immobilised (ligand), Fab analyte; analysis 1
[8] = biological target: T2, mouse C1q; assay: SPR Biacore T200, 1:1 model; Fab immobilised (ligand), mC1q analyte; analysis 2
[9] = biological target: T2, mouse C1q; assay: SPR Biacore T200, 1:1 model; Fab immobilised (ligand), mC1q analyte; analysis 1
[10] = biological target: T1, human C1q; assay: SPR Biacore T200, heterogeneous ligand model, KD1; hC1q immobilised (ligand), Fab analyte
Procedure: as §1, §4

[11] = biological target: T1, human C1q; assay: SPR Biacore T200, 1:1 model, single cycle kinetics; hC1q immobilised (ligand), Fab analyte
[12] = biological target: T1, human C1q; assay: SPR Biacore T200, heterogeneous ligand model, kd2; hC1q immobilised (ligand), Fab analyte
Procedure: as §1, §4

[13] = biological target: T2, mouse C1q; assay: SPR Biacore T200, 1:1 model; mC1q immobilised (ligand), Fab analyte; mean of 2 independent analyses
Procedure: as §1, §2, §3

[14] = biological target: T1, human C1q; assay: SPR Biacore T200, heterogeneous ligand model, ka2; hC1q immobilised (ligand), Fab analyte
Procedure: as §1, §4

T1 sequence (P02745 23-245 limits assumed, chain 1 of 3): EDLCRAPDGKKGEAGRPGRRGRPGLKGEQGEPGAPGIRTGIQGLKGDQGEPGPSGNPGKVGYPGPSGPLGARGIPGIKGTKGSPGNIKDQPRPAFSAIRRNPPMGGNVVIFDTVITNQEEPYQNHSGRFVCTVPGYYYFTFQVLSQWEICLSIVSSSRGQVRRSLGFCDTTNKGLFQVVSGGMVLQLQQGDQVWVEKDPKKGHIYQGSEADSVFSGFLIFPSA
T1 sequence (P02746 28-253 limits assumed, chain 2 of 3): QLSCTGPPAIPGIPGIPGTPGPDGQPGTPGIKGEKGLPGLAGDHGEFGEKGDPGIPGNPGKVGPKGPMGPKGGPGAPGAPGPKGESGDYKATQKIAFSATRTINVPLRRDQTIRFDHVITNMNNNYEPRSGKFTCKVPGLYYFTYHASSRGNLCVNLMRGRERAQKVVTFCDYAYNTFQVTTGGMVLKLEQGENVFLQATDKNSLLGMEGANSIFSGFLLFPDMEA
T1 sequence (P02747 29-245 limits assumed, chain 3 of 3): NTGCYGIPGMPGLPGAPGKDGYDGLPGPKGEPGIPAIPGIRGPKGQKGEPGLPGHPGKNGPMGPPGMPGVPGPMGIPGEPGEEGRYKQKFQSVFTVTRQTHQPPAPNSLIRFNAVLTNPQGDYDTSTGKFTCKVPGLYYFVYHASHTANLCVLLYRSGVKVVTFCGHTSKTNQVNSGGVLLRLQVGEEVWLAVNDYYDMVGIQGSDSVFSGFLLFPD

B1: Fab fragment of humanized anti-C1q antibody VH3/Vκ3 (Fab)
heavy: QVQLVQSGAELKKPGASVKVSCKSSGYHFTSYWMHWVKQAPGQGLEWIGVIHPNSGSINYNEKFESRVTITVDKSTSTAYMELSSLRSEDTAVYYCAGERDSTEVLPMDYWGQGTTVTVSS
light: DVQITQSPSSLSASLGERATINCRASKSINKYLAWYQQKPGKAPKLLIYSGSTLQSGIPARFSGSGSGTDFTLTISSLEPEDFAMYYCQQHNEYPLTFGQGTKLEIK
notes: also called Fab VH3/Vκ3; Fab-VH3/Vκ3; not shown: CH1 part of the human IgG4 (S241P L248E) constant region left after digestion of the IgG with a Fab Micro Preparation Ki; human kappa light chain constant region
In the case of B1, the koff [1] is reported as 2.3e-05 s⁻¹, the Kd [2] is reported as 607 nM and the koff [2] is reported as 0.0041 s⁻¹. For the same binder, the kon [2] was 6900 M⁻¹ s⁻¹, the kon [3] was 130000 M⁻¹ s⁻¹ and the Kd [4] was 3.4 nM. The Kd [5] was 123 nM, the koff [5] was 0.032 s⁻¹ and the kon [5] was 310000 M⁻¹ s⁻¹. The Kd [6] was 0.0086 nM, the koff [6] was 9.1e-06 s⁻¹ and the kon [6] was 1.1e+06 M⁻¹ s⁻¹. The Kd [7] was 748 nM, the koff [7] was 0.0046 s⁻¹ and the kon [7] was 6230 M⁻¹ s⁻¹. The Kd [8] was 121 nM, the Kd [9] was 126 nM and the koff [9] was 0.056 s⁻¹. The kon [9] was 450000 M⁻¹ s⁻¹, the Kd [10] was 175 nM and the Kd [11] was < 0.192 nM. The koff [11] was < 1e-05 s⁻¹, the kon [11] was 52000 M⁻¹ s⁻¹ and the koff [12] was 6.3e-08 s⁻¹. It also gave a Kd [13] of 677 nM, a koff [13] of 0.0043 s⁻¹ and a kon [13] of 6500 M⁻¹ s⁻¹. The kon [14] was 18000 M⁻¹ s⁻¹.
